# Reference: the supplement of paper PMC9170038
# Test system: MS2 coat protein
# Experiment: apparent KD of MS2 coat protein; designed switch direction (-1 OFF switch, 1 ON switch): -1; higher = weaker reporter binding
# How it was run: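 RNA switches sharing common flanks were transcribed by stalled E. coli RNA polymerase on Illumina chips. A doubling series of SNAP-549-labelled MS2 coat protein, from 0.7 or 1.5 nM to 3 µM, was applied in Tris-HCl pH 7.5 buffer with KCl, MgCl2, BSA, DTT, tRNA and Tween-20. Each step lasted 0.8–1.5 h at the bottom of the series and 10–20 min at the top. Normalised cluster fluorescence was curve-fitted, giving apparent KD as the per-design median over clusters.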
# [1] = Eterna round: R95, input ligand: FMN 200 uM
# [2] = Eterna round: R95, input ligand: microRNA oligo, concentration not stated
# [3] = Eterna round: R95, input ligand: none
# [4] = input ligand: microRNA oligo, concentration not stated
Sequence,apparent KD of MS2 coat protein (input ligand: FMN 200 uM),apparent KD of MS2 coat protein (input ligand: none),apparent KD of MS2 coat protein [1],apparent KD of MS2 coat protein [2],apparent KD of MS2 coat protein [3],apparent KD of MS2 coat protein [4]
"UGAGAGUGAGGAUAUACGUCGCUGGUCCGGAUGGACGCAUGACAUGAGGAUCACCCAUGUAGAAGGCAUUUCCC [Enxela Mod 6 - Jieux - Exclusion 2] (Eterna round: R97, puzzle: Exclusion 2)",75.2 nM,26.9 nM,,,,
"UGAGCAACAGGAUAUAUAUGGCGACCGUGAGGUCGAAGGUUACAUGAGGAUCACCCAUGUAGAAGGGUUGUUCU [Mat - Exclusion 2 - JL Mod - D16] (Eterna round: R97, puzzle: Exclusion 2)",279 nM,102 nM,,,,
"UGAGCUUGAGGAUAUACAAGGCGACCGUGAGGUCGAGGUUUACAUGAGGAUCACCCAUGUAGAAGGCAAGUUCU [Mat - Exclusion 2 - JL Mod - D8] (Eterna round: R97, puzzle: Exclusion 2)",41.9 nM,18.5 nM,,,,
UGAGUGUGAGGAUAUGGUAAAGAUAAGAUGAUGAAAGAACUCCAGAAGGCACAUGAGGAUCACCCAUGUAGAUG [JL-ex4-2.12 Jieux mod] (puzzle: Exclusion 4),,,81.1 nM,35.4 nM,35.7 nM,
"UGAUAGAGCCUAGGAUAUUCGGAUCUACUACAAGGAGAAGGAGGUAGUCGGUGACGAACAUGAGGAUCACCCAUGUCGUCCUUC [Eternabot solution 37] (Eterna round: R96, puzzle: Exclusion NG 1)",,,,,,61.7 nM
"UGAUCACAUGAGGAUCACCCAUGUCAGGAUAUCUACAUUGAAGCCUCGGCUUCAAUGUAGAGAAGGGACAUAAU [E1/3-B2] (Eterna round: R97, puzzle: Exclusion 1)",33.2 nM,71.1 nM,,,,
"UGAUCACAUGAGGAUCACCCAUGUCAGGAUAUCUACAUUGAAGCUGCGGCUUCAAUGUAGAGAAGGGACAUAAU [E1/3-B3] (Eterna round: R97, puzzle: Exclusion 1)",117 nM,355 nM,,,,
"UGAUCACAUGAGGAUCACCCAUGUCAGGAUAUCUACAUUGAAGCUUCGGCUUCAAUGUAGAGAAGGGACAUAAU [E1/3-B1] (Eterna round: R97, puzzle: Exclusion 1)",115 nM,175 nM,,,,
"UGAUCACAUGAGGAUCACCCAUGUCAGGAUAUCUACAUUGAAGCUUCGGCUUCAAUGUAGAGAAGGGAUAUAAU [E1/5-B1] (Eterna round: R97, puzzle: Exclusion 1)",203 nM,82.8 nM,,,,
"UGAUCAGACCGAGGAUAUAUAUGGAGGACGCACGUGAGUGCGUCCACUACAUGAGGAUCACCCAUGUAGAAGGCGGUCUGAUCU [JL ENG2 1.98] (Eterna round: R96, puzzle: Exclusion NG 2)",26.2 nM,13.1 nM,,,,9.6 nM
"UGAUCUAGCGGAGGAUAUACAUGAGGAUCACCCAUGUAAAUCGCUGAACCGUAGUUCAGCAUCAUGUAGAAGGCCGCUAGAUCU [MOD2 ENG2 3.62 by JL] (Eterna round: R96, puzzle: Exclusion NG 2)",473 nM,70.4 nM,,,,55.6 nM
"UGAUCUAGCGGAGGAUAUACAUGAGGAUCACCCAUGUAGAUAACAUGACCGUAGUCGUGUAACGUGUAGAAGGCCGCUAGAUCU [JL ENG2 3.68] (Eterna round: R96, puzzle: Exclusion NG 2)",104 nM,23 nM,,,,17 nM
"UGAUCUAGCGGAGGAUAUACAUGAGGAUCACCCAUGUAGAUAACAUGACCGUAGUCGUGUAUUGUGUAGAAGGCCGCUAGAUCU [JL ENG2 3.66] (Eterna round: R96, puzzle: Exclusion NG 2)",40.8 nM,18.8 nM,,,,14.3 nM
"UGAUCUAGGCGAGGAUAUACAUGAGGAUCACCCAUGUAAUGGUGACAUGCGUACAUGUCACCUAUGUAGAAGGCGCCUAGAUCU [JL ENG2 3.55] (Eterna round: R96, puzzle: Exclusion NG 2)",19.6 nM,13 nM,,,,9 nM
"UGCAGACGAGGAUAUGAUAAUUAAUACAUGAGGAUCACCCAUGUAAUACUGAUCCAUGGAUCAGAAGGCGUCUGCU [E5/4-A3] (Eterna round: R97, puzzle: Exclusion 5)",20.2 nM,13.7 nM,,,,
"UGCCGGCAUGUAAGGAUAUCCAGGAGAUGUAGAUCGGAGAAGGUACAUGAGGAUCACCCAUGUAUUCCAAUAAA [BmEX4 C.19] (Eterna round: R97, puzzle: Brourd's mod of Exclusion 4)",18 nM,18.5 nM,,,,
"UGCCGUUUAGGAUAUACAUGAGGAUCACCCAUGUGACACACAUAUUUUACAAAACCAUGUAGAAGGAAACGGCA [E3-1.0] (Eterna round: R96, puzzle: Exclusion 3)",542 nM,114 nM,,,,95.4 nM

Sequence,apparent KD of MS2 coat protein (input ligand: FMN 200 uM),apparent KD of MS2 coat protein (input ligand: none),apparent KD of MS2 coat protein [1],apparent KD of MS2 coat protein [2],apparent KD of MS2 coat protein [3],apparent KD of MS2 coat protein [4]
"UGCGCUUAAGGAUAUACUUCGGUGCGCCGAGAGUACGGCUAACUUGAGGAUCACCCAAGUAGAAGGUAAGAAAC [Esleberibe] (Eterna round: R97, puzzle: Exclusion 2)",42 nM,1270 nM,,,,
"UGCGGUGAGGUAAGGAUAUUUGGGCAAUUACGCCCGGAGAAGGUACAUGAGGAUCACCCAUGUGCAGUAAGGCU [Eternabot (L2) Solution 18] (Eterna round: R97, puzzle: Brourd's mod of Exclusion 4)",122 nM,26.9 nM,,,,
"UGCUACAUGAGGAUCACCCAUGUAAUGUGGGAUUCGUUAGGACAGGAUAUGAUUGUAUUGUUUUUUCAGAAGGGUCAUUACUUU [JR_ExcNG3_Sub011] (Eterna round: R96, puzzle: Exclusion NG 3)",74.4 nM,52.9 nM,,,,34.6 nM
"UGCUGACAAGGAUAUACAUGAGGAUCACCCAUGUUGGUUCAGCGACGAUAGUCGCAAUGUAGAAGGUGUCAGCA [E3/9-C1] (Eterna round: R97, puzzle: Exclusion 3)",135 nM,236 nM,,,,
"UGCUGACGAGGAUAUACAUGAGGAUCACCCAUGUUGGUUCAGCGACGAUAGUCGCAAUGUAGAAGGCGUCAGCU [E3/9-A3] (Eterna round: R97, puzzle: Exclusion 3)",202 nM,765 nM,,,,
"UGGAUAACAGGAUAUACAUGAGGAUCACCCAUGUUUCCGGACGGAGACGAAUCCUAGAGUAGAAGGGUUAUCCC [Eternabot (Original) Solution 17] (Eterna round: R97, puzzle: Exclusion 3)",388 nM,362 nM,,,,
"UGGGUCACAGGAUAUACAUGAGGAUCACCCAUGUCGUAUUUCGUGGCGGAGAGCUCGAGUAGAAGGGUGCAUCC [Malarala] (Eterna round: R96, puzzle: Exclusion 3)",297 nM,148 nM,,,,58.9 nM
UGGGUCACAGGAUAUACAUGAGGAUCACCCAUGUCGUAUUUCGUGGCGGAGAGCUCGAGUAGAAGGGUGCAUCC [Malarala] (puzzle: Exclusion 3),,,,96.3 nM,,
"UGGGUUCUCCAUAGAAGUAACAUGAGGAUCACCCAUGUAGGGCAAGUUUUUUGCUCGUCAUAGGUUGAGGGAUUGGA [JR_SV3TOV1_Sub017] (puzzle: Sensor v3, turn-off variant 1)",,,968 nM,441 nM,634 nM,
UGGUAACAUGAGGAUCACCCAUGUCAGGAUAUCAGUAAGAAGAGAUUAGAGUAGAAUAUGAGAAGGGACUAUAG [Excluse me! 1 - Jieux - Exclusion 1] (puzzle: Exclusion 1),,,,35.8 nM,,
UGGUAACAUGAGGAUCACCCAUGUCAGGAUAUCAGUAAGAAUAGAUUAGAGUAGAAGAUGAGAAGGGACUAUAU [Excluse me! 6 - Jieux - Exclusion 1] (puzzle: Exclusion 1),,,,33.8 nM,,
"UGUAAGGCAGAGGAUAUGGUUACUAGACGAGUACCAGAAGGCUGCACAUGAGGAUCACCCAUGUGAAAUCCACU [Eternabot (L1) Solution 72] (Eterna round: R97, puzzle: Exclusion 6)",80.7 nM,34.7 nM,,,,
"UGUAUACGAGGAUAUACAUGAGGAUCACCCAUGUGGACGUUGGAGAACGGCCCUCGUAGUAGAAGGCGUAUGAG [Eternabot (L2) Solution 53] (Eterna round: R97, puzzle: Exclusion 3)",51.3 nM,15.4 nM,,,,
"UGUCAGAUGGUAGGAUAUCCAUAUUGAGUGACCCUUUCAUAACAUGAGGAUCACCCAUGUCGGUGGGAGAAGGGCCGUAUGGUG [salish99_ExNG02_R04_028] (Eterna round: R96, puzzle: Exclusion NG 2)",53.7 nM,33.8 nM,,,,21.9 nM
"UGUCAGAUGGUAGGAUAUCCCUAUCGCGUGUCCCUUUCCUAACAUGAGGAUCACCCAUGUCGGUGGGAGAAGGGCCGUAUGGUG [salish99_ExNG02_R04_036] (Eterna round: R96, puzzle: Exclusion NG 2)",15.7 nM,15.4 nM,,,,13.6 nM
"UGUCUUGCAGGAUAUACAUGAGGAUCACCCAUGUAUAUUGAUGAGGGAGAUCUACUAGGUAGAAGGGUAAGAGA [Eternabot (L2) Solution 59] (Eterna round: R97, puzzle: Exclusion 3)",45 nM,17.8 nM,,,,
"UGUGCUUCAGGAUAUACGUGACGACCGUGAGGUCGAAGGUUACAUGAGGAUCACCCAUGUAGAAGGGAAGUACU [Mat - Exclusion 2 - JL Mod - D29] (Eterna round: R97, puzzle: Exclusion 2)",66.8 nM,33 nM,,,,
